According to patent publication US20150344570A1 (published 2015):

Tests used:
FcγRIa [1] = target: T1, FcγRIa (human, UniProt P12314 16-292); assay: SPR (Biacore); He/Con_1a divided by He/Con_2b (binding to FcγRIa against binding to FcγRIIb)
T1 construct: extracellular domain; Soluble extracellular domain with C-terminal His tag, used as analyte in Biacore; also called FcgRI; 1a; not shown: His tag attached to the C terminus
Description: The heterodimerized antibodies He Abs in which one of the H chains was introduced with an alteration were assayed for their binding activities to each activating FcγR and inhibitory FcγR according to the method described in Example 4. […] The activating FcγRs in FIGS. 26, 27, 28, and 29 are FcγRIa, FcγRIIa (R), FcγRIIa (H), and FcγRIIIa, respectively.
Analysis of interaction between objective antibody and the FcγR was carried out using Biacore T100 (GE Healthcare). HBS-EP+ (GE Healthcare) was used as the running buffer, and the measurement temperature was set to 25° C. Chips produced by immobilizing the antigen peptide by the amine coupling method to a Series S Sencor Chip CM5 (GE Healthcare), or alternatively, chips produced by allowing preliminarily biotinylated antigen peptides to interact with and immobilize onto a Series S Sensor Chip SA (certified) (GE Healthcare) were used. Antibodies of interest were captured onto an antigen peptide-immobilized chip, and allowed to interact to each FcγR diluted with running buffer. To regenerate and repeatedly use the chip, the antibodies captured on the chip were washed off by reacting 10 mM glycine-HCl, pH 1.5.

FcγRIa [2] = target: T1, FcγRIa; assay: SPR (Biacore), antibody captured, FcγR as analyte; relative to GpH7-A5/GpH7-B3/GpL16-k0 = 100
FcγRIIb = target: T2, FcγRIIb (human, UniProt P31994 43-217); assay: as above
T2 construct: extracellular domain; Soluble extracellular domain with C-terminal His tag, used as analyte in Biacore; also called FcgRIIb; 2b; not shown: His tag attached to the C terminus
T2 sequence (looked up): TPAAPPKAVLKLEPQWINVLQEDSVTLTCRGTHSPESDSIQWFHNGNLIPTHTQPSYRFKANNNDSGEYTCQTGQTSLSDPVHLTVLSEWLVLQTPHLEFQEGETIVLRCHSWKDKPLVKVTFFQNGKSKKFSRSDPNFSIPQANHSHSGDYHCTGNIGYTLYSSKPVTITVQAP

T1 sequence (P12314 16-292): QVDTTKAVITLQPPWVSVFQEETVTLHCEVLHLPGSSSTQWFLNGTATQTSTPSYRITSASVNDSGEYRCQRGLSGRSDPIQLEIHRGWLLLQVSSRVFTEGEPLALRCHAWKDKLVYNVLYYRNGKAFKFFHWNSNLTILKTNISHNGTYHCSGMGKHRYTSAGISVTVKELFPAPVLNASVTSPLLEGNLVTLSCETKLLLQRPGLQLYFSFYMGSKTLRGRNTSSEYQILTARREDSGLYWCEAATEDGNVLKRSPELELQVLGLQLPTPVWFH

B1: GpH7-A5/GpH7-B3 variant G237_19Q/GpL16-k0 (antibody, human IgG1, kappa)
heavy 1: not shown
heavy 2: not shown
light: DIVMTQSPLSLPVTPGEPASISCQASESLVHSNRNTYLHWYLQKPGQSPQLLIYKVSNRFSGVPDRFSGSGSGTDFTLKISRVEAEDVGVYYCSQNTHVPPTFGQGTKVEIERTVAAPSVFIFPPSDEQLKSGTASVVCLLNNFYPREAKVQWKVDNALQSGNSQESVTEQDSKDSTYSLSSTLTLSKADYEKHKVYACEVTHQGLSSPVTKSFNRGEC
notes: Heterodimerized anti-glypican-3 IgG1; alteration in the GpH7-B3 chain only; also called He Ab
He_1a/2b (Ia/IIb) (FcγRIa [1]): 0.77 ratio
He/Con_1a (FcγRIa [2]): 82.8 % of control (=100)
He/Con_2b (FcγRIIb): 108 % of control (=100)

B2: GpH7-A5/GpH7-B3 variant P238_08L/GpL16-k0 (antibody, human IgG1, kappa)
heavy 1: not shown
heavy 2: not shown
light: DIVMTQSPLSLPVTPGEPASISCQASESLVHSNRNTYLHWYLQKPGQSPQLLIYKVSNRFSGVPDRFSGSGSGTDFTLKISRVEAEDVGVYYCSQNTHVPPTFGQGTKVEIERTVAAPSVFIFPPSDEQLKSGTASVVCLLNNFYPREAKVQWKVDNALQSGNSQESVTEQDSKDSTYSLSSTLTLSKADYEKHKVYACEVTHQGLSSPVTKSFNRGEC
notes: as for B1
He_1a/2b (Ia/IIb) (FcγRIa [1]): 0.49 ratio
He/Con_1a (FcγRIa [2]): 101 % of control (=100)
He/Con_2b (FcγRIIb): 204 % of control (=100)

B3: GpH7-A5/GpH7-B3 variant P238_04F/GpL16-k0 (antibody, human IgG1, kappa)
heavy 1: not shown
heavy 2: not shown
light: DIVMTQSPLSLPVTPGEPASISCQASESLVHSNRNTYLHWYLQKPGQSPQLLIYKVSNRFSGVPDRFSGSGSGTDFTLKISRVEAEDVGVYYCSQNTHVPPTFGQGTKVEIERTVAAPSVFIFPPSDEQLKSGTASVVCLLNNFYPREAKVQWKVDNALQSGNSQESVTEQDSKDSTYSLSSTLTLSKADYEKHKVYACEVTHQGLSSPVTKSFNRGEC
notes: as for B1
He_1a/2b (Ia/IIb) (FcγRIa [1]): 0.32 ratio
He/Con_1a (FcγRIa [2]): 101 % of control (=100)
He/Con_2b (FcγRIIb): 312 % of control (=100)

B4: GpH7-A5/GpH7-B3 variant L234_09D/GpL16-k0 (antibody, human IgG1, kappa)
heavy 1: not shown
heavy 2: not shown
light: DIVMTQSPLSLPVTPGEPASISCQASESLVHSNRNTYLHWYLQKPGQSPQLLIYKVSNRFSGVPDRFSGSGSGTDFTLKISRVEAEDVGVYYCSQNTHVPPTFGQGTKVEIERTVAAPSVFIFPPSDEQLKSGTASVVCLLNNFYPREAKVQWKVDNALQSGNSQESVTEQDSKDSTYSLSSTLTLSKADYEKHKVYACEVTHQGLSSPVTKSFNRGEC
notes: as for B1
He_1a/2b (Ia/IIb) (FcγRIa [1]): 0.65 ratio
He/Con_1a (FcγRIa [2]): 97.8 % of control (=100)
He/Con_2b (FcγRIIb): 150 % of control (=100)

B5: GpH7-A5/GpH7-B3 variant S239_08L/GpL16-k0 (antibody, human IgG1, kappa)
heavy 1: not shown
heavy 2: not shown
light: DIVMTQSPLSLPVTPGEPASISCQASESLVHSNRNTYLHWYLQKPGQSPQLLIYKVSNRFSGVPDRFSGSGSGTDFTLKISRVEAEDVGVYYCSQNTHVPPTFGQGTKVEIERTVAAPSVFIFPPSDEQLKSGTASVVCLLNNFYPREAKVQWKVDNALQSGNSQESVTEQDSKDSTYSLSSTLTLSKADYEKHKVYACEVTHQGLSSPVTKSFNRGEC
notes: as for B1
He_1a/2b (Ia/IIb) (FcγRIa [1]): 0.71 ratio
He/Con_1a (FcγRIa [2]): 99.8 % of control (=100)
He/Con_2b (FcγRIIb): 140 % of control (=100)

B6: GpH7-A5/GpH7-B3 variant L235_15Y/GpL16-k0 (antibody, human IgG1, kappa)
heavy 1: not shown
heavy 2: not shown
light: DIVMTQSPLSLPVTPGEPASISCQASESLVHSNRNTYLHWYLQKPGQSPQLLIYKVSNRFSGVPDRFSGSGSGTDFTLKISRVEAEDVGVYYCSQNTHVPPTFGQGTKVEIERTVAAPSVFIFPPSDEQLKSGTASVVCLLNNFYPREAKVQWKVDNALQSGNSQESVTEQDSKDSTYSLSSTLTLSKADYEKHKVYACEVTHQGLSSPVTKSFNRGEC
notes: as for B1
He_1a/2b (Ia/IIb) (FcγRIa [1]): 0.65 ratio
He/Con_1a (FcγRIa [2]): 97.1 % of control (=100)
He/Con_2b (FcγRIIb): 149 % of control (=100)

B7: GpH7-A5/GpH7-B3 variant P238_06M/GpL16-k0 (antibody, human IgG1, kappa)
heavy 1: not shown
heavy 2: not shown
light: DIVMTQSPLSLPVTPGEPASISCQASESLVHSNRNTYLHWYLQKPGQSPQLLIYKVSNRFSGVPDRFSGSGSGTDFTLKISRVEAEDVGVYYCSQNTHVPPTFGQGTKVEIERTVAAPSVFIFPPSDEQLKSGTASVVCLLNNFYPREAKVQWKVDNALQSGNSQESVTEQDSKDSTYSLSSTLTLSKADYEKHKVYACEVTHQGLSSPVTKSFNRGEC
notes: as for B1
He_1a/2b (Ia/IIb) (FcγRIa [1]): 0.59 ratio
He/Con_1a (FcγRIa [2]): 102 % of control (=100)
He/Con_2b (FcγRIIb): 174 % of control (=100)

B8: GpH7-A5/GpH7-B3 variant L235_09D/GpL16-k0 (antibody, human IgG1, kappa)
heavy 1: not shown
heavy 2: not shown
light: DIVMTQSPLSLPVTPGEPASISCQASESLVHSNRNTYLHWYLQKPGQSPQLLIYKVSNRFSGVPDRFSGSGSGTDFTLKISRVEAEDVGVYYCSQNTHVPPTFGQGTKVEIERTVAAPSVFIFPPSDEQLKSGTASVVCLLNNFYPREAKVQWKVDNALQSGNSQESVTEQDSKDSTYSLSSTLTLSKADYEKHKVYACEVTHQGLSSPVTKSFNRGEC
notes: as for B1
He_1a/2b (Ia/IIb) (FcγRIa [1]): 0.8 ratio
He/Con_1a (FcγRIa [2]): 84.8 % of control (=100)
He/Con_2b (FcγRIIb): 106 % of control (=100)
